Measured values as given in publication PMC4872217, “Structural and functional insights into the E3 ligase, RNF126” (Scientific Reports, 2016).

B1: BAG6_UBL (UBL domain of BAG6, residues 17-101) (domain or fragment, UniProt P46379 17-101, looked up)
chain: LEVLVKTLDSQTRTFIVGAQMNVKEFKEHIAASVSIPSEKQRLIYQGRVLQDDKKLQEYNVGGKVIHLVERAPPQTHLPSGASSG
notes: BAG6 (BCL2-associated athanogene 6), UBL domain, residues 17-101; The general purification protocol describes TEV cleavage; also called BAG6 UBL domain; source: E. coli BL21 (DE3), purified
B3: RNF126_NZF (RNF126 N-terminal zinc finger domain, residues 1-40) (domain or fragment, human, UniProt Q9BV68 1-40, looked up)
chain: MAEASPHPGRYFCHCCSVEIVPRLPDYICPRCESGFIEEL
notes: RNF126, human, residues 1-40 (N-terminal zinc finger); 15N- or 15N,13C-labelled where it was the observed protein in NMR; Cultures were supplemented with 10 uM ZnCl2; also called RNF126 1-40; not shown: thioredoxin A, N-terminal, cleaved; His6, N-terminal, cleaved

Tests used:
[1] = molecular target: B3; experiment: NMR titration; unlabelled protein titrated into 15N-labelled protein, 1H-15N HSQC chemical shift perturbation; 25 °C; 10 mM potassium phosphate pH 6.0, 100 mM NaCl, 250 μM TCEP; for RNF126_NZF into UBL4A_UBL fitted with DynaFit to a 1:1 model; conditions: both partners purified
[2] = molecular target: T1, RNF126 N-terminal region (residues 1-100) (human, UniProt Q9BV68 1-100); experiment: as above; conditions: both partners purified
T1 construct: RNF126, human, residues 1-100; also called RNF126 1-100; RNF126_NT (1-100); not shown: thioredoxin A, N-terminal, cleaved; His6, N-terminal, cleaved

[3] = molecular target: T2, SGTA_NT (N-terminal SGTA, residues 1-86) (human, UniProt O43765 1-86); experiment: as above; conditions: both partners purified
T2 construct: SGTA (small glutamine-rich tetratricopeptide repeat-containing protein alpha), human, residues 1-86; Only the 1-86 construct is described in the methods; not shown: thioredoxin A, N-terminal, cleaved; His6, N-terminal, cleaved
T2 sequence (O43765 1-86): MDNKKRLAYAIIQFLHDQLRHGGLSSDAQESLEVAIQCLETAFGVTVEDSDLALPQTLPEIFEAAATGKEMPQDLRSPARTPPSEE

[4] = molecular target: B1; experiment: ITC; 500 μM RNF126_NZF (wild-type or mutant) injected into 50 μM BAG6_UBL in the cell; 25 °C; 10 mM potassium phosphate pH 6.0, 100 mM NaCl, 250 μM TCEP; conditions: both partners purified
[5] = molecular target: UBL4A_UBL (UBL domain of UBL4A, residues 1-74) (UniProt P11441); experiment: NMR titration; unlabelled protein titrated into 15N-labelled protein, 1H-15N HSQC chemical shift perturbation; 25 °C; 10 mM potassium phosphate pH 6.0, 100 mM NaCl, 250 μM TCEP; for RNF126_NZF into UBL4A_UBL fitted with DynaFit to a 1:1 model

B1
stoichiometry N [1]: ~1 molar ratio
binding result [2]: binds
binding result [3]: binds

B2: UBL4A_UBL (UBL domain of UBL4A, residues 1-74) (domain or fragment, UniProt P11441 1-74, looked up)
chain: MQLTVKALQGRECSLQVPEDELVSTLKQLVSEKLNVPVRQQRLLFKGKALADGKRLSDYSIGPNSKLNLVVKPL
notes: UBL4A (ubiquitin-like protein 4A), UBL domain, residues 1-74; source: E. coli Rosetta, purified
binding result [2]: binds

B3
Kd [4]: 0.4 ± 0.05 µM
dH [4]: -4.52 ± 0.04 kcal/mol
stoichiometry N [4]: 1
Kd [5]: 16.6 µM

B4: RNF126_NZF H14A mutant (domain or fragment, human, UniProt Q9BV68 1-40, looked up)
chain: MAEASPHPGRYFCACCSVEIVPRLPDYICPRCESGFIEEL
notes: RNF126, human, residues 1-40, with H14A; Made by PCR mutagenesis on pET28-GFP-RNF126 (1-40); in the native PAGE the mutants were GFP tagged; also called His14/Ala; source: E. coli BL21 (DE3), purified
Kd [4]: > 50 µM

B5: RNF126_NZF F36A mutant (domain or fragment, human, UniProt Q9BV68 1-40, looked up)
chain: MAEASPHPGRYFCHCCSVEIVPRLPDYICPRCESGAIEEL
notes: RNF126, human, residues 1-40, with F36A; Made by PCR mutagenesis on pET28-GFP-RNF126 (1-40); in the native PAGE the mutants were GFP tagged; also called Phe36/Ala; source: E. coli BL21 (DE3), purified
Kd [4]: 5 ± 0.3 µM
